Data published in patent US20160031952A1.

Assays:
Assay in all cases: cell-based or functional assay
[1] = molecular target: transthyretin (TTR), pre-incubated at pH 4.5 for 24 hrs, toxic oligomer-containing solution (UniProt P02766)
[2] = molecular target: β-amyloid peptide 1-42 (Aβ), pre-aggregated for 6 hrs, toxic oligomer-containing solution (UniProt P05067)
[3] = molecular target: β-amyloid peptide 1-42 (Aβ), fresh (0 h), monomeric (UniProt P05067)
Sequence of β-amyloid peptide 1-42 (Aβ), fresh (0 h), monomeric (P05067 672-713 limits assumed): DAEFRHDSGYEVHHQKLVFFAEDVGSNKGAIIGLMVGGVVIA

Sequence of β-amyloid peptide 1-42 (Aβ), pre-aggregated for 6 hrs, toxic oligomer-containing solution (P05067 672-713 limits assumed): as above

Substance	inhibition of the remaining TTR aggregation after addition to 24-hour pre-incubated, toxic TTR (Congo red) [1] [%]	percentage inhibition of TTR aggregation (Congo red binding, 48 h, 37° C., pH 4.5; peptide co-incubated 20:1 from the start) [1] [%]	inhibition of Aβ fibril formation (ThT fluorescence, 22 hours, 37° C.; peptide co-incubated 10:1 from the start) [2] [%]	inhibition of aggregation after addition to pre-aggregated (6 hrs), toxic Aβ (ThT) [2] [%]	inhibition of Aβ fibrillization (ThT fluorescence; co-incubated 10:1) [3] [%]
α1 (ldas90, peptide #1 of FIG. 5), Ac-RGEmNlSwMNEYSGWtMnLkMGR-NH2 (designed binder)	81	72	87	97	
β (β-sheet control design: Trpzip 3 peptide with Trp to Leu substitutions) (designed binder)					62
